The Immune Epitope Database (IEDB)

Columns and labels:
HLA-B*18:01 = assay: IEDB peptide-MHC binding, purified MHC/direct/fluorescence; filed as Kd, often an IC50 or EC50 that approximates it; ≥ and ≤ were set here for values at or beyond the usual limits of such assays; settings: source organism: Burkholderia mallei ATCC 23344
HLA-C*15:02 = assay: as above
HLA-C*14:02 = assay: as above; settings: source organism: Burkholderia mallei SAVP1
HLA-A*30:01 = assay: as above
HLA-C*07:02 = assay: as above
HLA-B*08:01 = assay: as above
HLA-A*26:02 = assay: as above
HLA-B*44:02 = assay: as above; settings: source organism: Yellow fever virus strain Ghana/Asibi/1927
HLA-B*46:01 [1] = assay: as above; settings: source organism: Yellow fever virus strain Ghana/Asibi/1927
HLA-B*15:01 [2] = assay: as above
HLA-B*48:01 = assay: as above; settings: source organism: Yellow fever virus strain Ghana/Asibi/1927
HLA-A*01:01 = assay: as above
HLA-B*07:02 = assay: as above
HLA-A*31:01 = assay: as above; settings: source organism: Yellow fever virus strain Ghana/Asibi/1927
HLA-B*57:01 = assay: as above
HLA-B*27:05 = assay: as above
HLA-B*08:02 = assay: as above; settings: source organism: Yellow fever virus
HLA-A*23:01 = assay: IEDB peptide-MHC binding, purified MHC/competitive/fluorescence; filed as Kd, often an IC50 or EC50 that approximates it; ≥ and ≤ were set here for values at or beyond the usual limits of such assays; settings: source organism: Vibrio cholerae 2740-80
HLA-B*58:01 = assay: IEDB peptide-MHC binding, purified MHC/direct/fluorescence; filed as Kd, often an IC50 or EC50 that approximates it; ≥ and ≤ were set here for values at or beyond the usual limits of such assays
HLA-A*69:01 = assay: as above; settings: source organism: Vibrio vulnificus
HLA-B*40:01 = assay: as above; settings: source organism: Vibrio vulnificus
HLA-A*03:01 = assay: as above; settings: source organism: Vibrio vulnificus
HLA-A*24:03 = assay: as above; settings: source organism: Vibrio vulnificus
HLA-A*26:01 = assay: as above; settings: source organism: Vibrio vulnificus
HLA-A*11:01 = assay: as above; settings: source organism: Vibrio vulnificus
HLA-A*02:01 [3] = assay: as above; settings: source organism: Vibrio vulnificus
HLA-B*46:01 [4] = assay: IEDB peptide-MHC binding, purified MHC/competitive/fluorescence; filed as Kd, often an IC50 or EC50 that approximates it; ≥ and ≤ were set here for values at or beyond the usual limits of such assays; settings: source organism: Yellow fever virus
HLA-C*03:03 = assay: IEDB peptide-MHC binding, purified MHC/direct/fluorescence; filed as Kd, often an IC50 or EC50 that approximates it; ≥ and ≤ were set here for values at or beyond the usual limits of such assays
HLA-C*12:03 = assay: as above; settings: source organism: Yersinia pestis Nepal516
HLA-C*05:01 = assay: as above; settings: source organism: Yersinia pestis Nepal516
HLA-B*39:01 = assay: IEDB peptide-MHC binding, purified MHC/competitive/fluorescence; filed as Kd, often an IC50 or EC50 that approximates it; ≥ and ≤ were set here for values at or beyond the usual limits of such assays; settings: source organism: Yersinia pestis Nepal516
HLA-B*15:01 [5] = assay: as above; settings: source organism: Yersinia pestis Nepal516
HLA-B*51:01 = assay: as above; settings: source organism: Yersinia pestis Nepal516
HLA-B*35:01 = assay: as above; settings: source organism: Yersinia pestis Nepal516
HLA-A*02:01 [6] = assay: as above; settings: source organism: Yersinia pestis Nepal516
[7] = source organism: Yellow fever virus strain Ghana/Asibi/1927
[8] = source organism: Yellow fever virus
[9] = source organism: Vibrio vulnificus
[10] = source organism: Yersinia pestis Nepal516
[11] = source organism: Chelativorans sp. BNC1

## WWLEYTASF
HLA-B*18:01
  Kd: 0.068 µM
HLA-C*15:02; source organism: Burkholderia mallei SAVP1
  Kd: ≥ 20 µM
HLA-C*14:02
  Kd: 0.077 µM

## EYVGKTVWF
HLA-A*30:01; source organism: West Nile virus SPU116/89
  Kd: ≥ 20 µM

## FIRWRFYLL
HLA-C*07:02; source organism: Vibrio cholerae 2740-80
  Kd: 4.08 µM
HLA-B*08:01; source organism: Vibrio cholerae V52
  Kd: 0.216 µM

## ETLETLLLL
HLA-A*26:02; source organism: Dengue virus 2 Thailand/16681/84
  Kd: 0.055 µM

## AIHPFALLL
HLA-B*44:02
  Kd: ≥ 20 µM
HLA-B*46:01 [1]
  Kd: ≥ 20 µM
HLA-B*15:01 [2]; [7]
  Kd: ≥ 20 µM
HLA-B*48:01
  Kd: ≥ 20 µM
HLA-A*01:01; [7]
  Kd: ≥ 20 µM
HLA-B*07:02; [7]
  Kd: ≥ 20 µM
HLA-A*31:01
  Kd: ≥ 20 µM
HLA-B*57:01; [7]
  Kd: ≥ 20 µM
HLA-B*27:05; [7]
  Kd: ≥ 20 µM
HLA-B*08:02
  Kd: ≥ 20 µM
HLA-C*15:02; [8]
  Kd: 0.099 µM

## FVQGVIWNI
HLA-A*23:01
  Kd: 0.0365 µM

## QSPQPVRVK
HLA-B*15:01 [2]; [9]
  Kd: ≥ 20 µM
HLA-B*58:01; [9]
  Kd: ≥ 20 µM
HLA-A*30:01; [9]
  Kd: 3.75 µM
HLA-A*69:01
  Kd: ≥ 20 µM
HLA-B*08:01; [9]
  Kd: ≥ 20 µM
HLA-B*40:01
  Kd: ≥ 20 µM
HLA-A*03:01
  Kd: 19.3 µM
HLA-A*01:01; [9]
  Kd: ≥ 20 µM
HLA-B*07:02; [9]
  Kd: ≥ 20 µM
HLA-A*24:03
  Kd: ≥ 20 µM
HLA-A*26:01
  Kd: ≥ 20 µM
HLA-A*11:01
  Kd: 12.2 µM
HLA-B*27:05; [9]
  Kd: ≥ 20 µM
HLA-A*02:01 [3]
  Kd: ≥ 20 µM

## EAMDTISVF
HLA-A*26:02; [8]
  Kd: ≤ 0.001 µM
HLA-B*46:01 [4]
  Kd: 0.53 µM

## FAFKLSFAI
HLA-C*03:03; [10]
  Kd: 0.004 µM
HLA-C*07:02; [10]
  Kd: ≥ 20 µM
HLA-C*12:03
  Kd: ≤ 0.001 µM
HLA-C*05:01
  Kd: ≥ 20 µM
HLA-B*39:01
  Kd: 3 µM
HLA-B*15:01 [5]
  Kd: ≥ 20 µM
HLA-B*51:01
  Kd: ≥ 20 µM
HLA-B*35:01
  Kd: 0.065 µM
HLA-A*02:01 [6]
  Kd: 1.01 µM

## WALDVPMYF
HLA-C*03:03; [11]
  Kd: ≤ 0.001 µM
HLA-B*58:01; source organism: Aurantimonas manganoxydans
  Kd: 0.0036 µM
HLA-B*57:01; source organism: Brucella suis 1330
  Kd: 0.034 µM
HLA-C*15:02; [11]
  Kd: 0.179 µM
